A word on the Kd: it is the equilibrium constant for the complex coming apart. Low values mean higher affinity, high ones lower affinity.

This assay addresses AgrC-I (wild type) dimer embedded in nanodiscs (Staphylococcus aureus). Nature of the assay: fluorescence polarisation. Background: In fluorescence polarisation assays a small probe gives low polarisation when free and higher when bound to something large.

“AIP-I (native autoinducing peptide of agr group 1)” showed a Kd of 63 nM.

In the case of “AIP-II (native autoinducing peptide of agr group 2)”, the Kd came to 160 nM.

These data come from PMC4004102.
